Measurements published in the supplement of paper PMC9876800.

System: peptide library, one residue held at a place counted from the S/T acceptor
Test: relative phosphorylation of the sub-library (ratio to the mean residue at this position); higher = residue favoured
How it was run: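 Human or orthologue kinase constructs, purified and recombinant, were incubated under kinase-specific conditions in 384-well plates with biotinylated degenerate peptide sub-libraries. Each sub-library fixed one residue at one position around a central Ser/Thr. Incubations lasted 90 min with peptides at 50 μM and 50 μM ATP spiked with γ-32P-ATP, after which spots on streptavidin membranes were phosphorimaged and quantified by densitometry. Relative sub-library phosphorylation is a ratio to the mean residue at that position.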

Sequence of MYLK, construct: aa1425-1771, human (Q15746 1425-1771, looked up): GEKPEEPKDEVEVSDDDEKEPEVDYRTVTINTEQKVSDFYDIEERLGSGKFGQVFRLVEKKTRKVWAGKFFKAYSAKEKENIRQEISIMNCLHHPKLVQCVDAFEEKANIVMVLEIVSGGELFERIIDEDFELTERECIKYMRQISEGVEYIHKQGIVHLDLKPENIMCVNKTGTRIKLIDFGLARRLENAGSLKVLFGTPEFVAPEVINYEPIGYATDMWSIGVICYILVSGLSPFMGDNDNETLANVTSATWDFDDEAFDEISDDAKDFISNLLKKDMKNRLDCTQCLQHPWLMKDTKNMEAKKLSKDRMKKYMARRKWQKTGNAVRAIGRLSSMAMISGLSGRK
Sequence of MAP3K1, construct: aa1174-end, human (Q13233 1174-1512, looked up): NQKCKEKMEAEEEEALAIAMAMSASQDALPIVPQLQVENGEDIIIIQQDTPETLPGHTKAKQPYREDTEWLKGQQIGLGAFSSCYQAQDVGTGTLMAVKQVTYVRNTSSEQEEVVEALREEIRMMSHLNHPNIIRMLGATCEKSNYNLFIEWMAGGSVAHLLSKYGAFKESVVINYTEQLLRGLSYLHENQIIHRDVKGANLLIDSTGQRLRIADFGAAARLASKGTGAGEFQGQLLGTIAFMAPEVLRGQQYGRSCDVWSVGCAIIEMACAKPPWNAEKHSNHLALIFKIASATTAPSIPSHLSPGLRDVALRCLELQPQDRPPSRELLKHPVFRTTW
Sequence of PRKD2, construct: Full length, human (Q9BZL6 whole entry, looked up): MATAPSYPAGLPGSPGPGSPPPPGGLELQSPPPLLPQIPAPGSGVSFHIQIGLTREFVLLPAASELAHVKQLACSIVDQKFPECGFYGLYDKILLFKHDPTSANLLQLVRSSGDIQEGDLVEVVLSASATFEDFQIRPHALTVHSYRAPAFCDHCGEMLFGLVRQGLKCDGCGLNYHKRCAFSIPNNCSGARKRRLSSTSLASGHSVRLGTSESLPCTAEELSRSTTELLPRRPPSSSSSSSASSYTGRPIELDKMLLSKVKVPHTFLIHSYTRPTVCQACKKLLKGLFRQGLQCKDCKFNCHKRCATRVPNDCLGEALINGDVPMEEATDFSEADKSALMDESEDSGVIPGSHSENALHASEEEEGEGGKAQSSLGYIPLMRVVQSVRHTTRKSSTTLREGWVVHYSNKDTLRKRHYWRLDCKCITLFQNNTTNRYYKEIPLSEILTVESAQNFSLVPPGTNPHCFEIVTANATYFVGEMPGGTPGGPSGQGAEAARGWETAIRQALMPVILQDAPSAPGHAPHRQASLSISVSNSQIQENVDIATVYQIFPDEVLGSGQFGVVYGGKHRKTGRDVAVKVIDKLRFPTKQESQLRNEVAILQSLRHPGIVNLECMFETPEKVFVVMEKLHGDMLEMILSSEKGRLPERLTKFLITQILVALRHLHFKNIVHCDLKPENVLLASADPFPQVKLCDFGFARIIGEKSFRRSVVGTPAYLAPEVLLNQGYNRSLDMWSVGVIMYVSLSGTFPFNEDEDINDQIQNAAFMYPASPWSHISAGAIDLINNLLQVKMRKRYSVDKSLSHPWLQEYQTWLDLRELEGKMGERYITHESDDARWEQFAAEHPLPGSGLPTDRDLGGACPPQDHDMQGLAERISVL
Sequence of CDKL5, construct: aa1-352, mouse (Q3UTQ8 1-352, looked up): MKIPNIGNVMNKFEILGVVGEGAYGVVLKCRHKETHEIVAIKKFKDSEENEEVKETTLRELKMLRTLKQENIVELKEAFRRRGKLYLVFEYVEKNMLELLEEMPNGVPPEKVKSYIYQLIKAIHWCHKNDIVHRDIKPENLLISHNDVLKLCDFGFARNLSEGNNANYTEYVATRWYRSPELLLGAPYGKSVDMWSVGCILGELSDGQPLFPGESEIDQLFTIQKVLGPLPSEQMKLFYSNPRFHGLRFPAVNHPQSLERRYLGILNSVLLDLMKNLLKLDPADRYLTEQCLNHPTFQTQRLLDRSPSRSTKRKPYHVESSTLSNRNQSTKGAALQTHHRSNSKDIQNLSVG

MAP3K1, construct: aa1174-end, human (from UniProt Q13233)
relative phosphorylation
Settings	at +1	at +2	at +3	at +4	at -1	at -2	at -3	at -4	at -5
A fixed	0.537	1.1	0.749	0.741	0.7	1.08	1.07	1.01	1.04
D fixed	0.324	0.73	0.46	0.814	1.35	1.11	1.04	1.21	1.21
E fixed	0.309	0.439	0.395	0.711	0.98	0.858	1.14	1.08	1.23
F fixed	1.12	0.619	1.17	0.878	0.741	1.01	0.862	1.06	0.837
G fixed	0.785	0.9	0.977	1.14	1.22	1.31	1.44	1.33	1.67
H fixed	0.853	1.27	1.03	1.23	1.89	1.33	1.19	1.17	1.19
I fixed	2.35	0.826	1.35	1.13	0.522	0.69	0.849	0.721	0.812
K fixed	0.593	1.57	0.996	1.04	0.791	0.644	0.659	0.899	0.897
L fixed	1.31	0.49	1.35	0.914	0.711	1.03	0.772	0.715	0.565
M fixed	1.88	1.03	1.46	1.1	1.23	1.29	1.16	0.793	0.832
N fixed	0.688	1.38	0.727	1.02	1.57	1.26	0.989	0.996	1.09
P fixed	0.343	0.583	0.773	0.923	0.893	0.839	1.13	0.952	1.07
Q fixed	0.963	0.825	0.725	0.823	1.09	1.03	0.78	0.838	0.761
R fixed	0.837	2.5	1.24	1.6	1.38	0.832	0.857	0.954	1.17
V fixed	1.77	0.777	0.812	0.66	0.479	0.581	0.639	0.735	0.65
W fixed	1.19	0.798	1.41	1.19	0.599	0.943	1.27	1.54	0.897
Y fixed	1.15	1.17	1.36	1.08	0.855	1.16	1.15	0.982	1.09
pThr fixed	0.504	0.403	0.516	0.644	0.679	0.909	1.05	0.952	1.05
pTyr fixed	0.495	0.368	0.623	0.696	0.796	0.796	1.22	0.824	1.36

PRKD2, construct: Full length, human (from UniProt Q9BZL6)
relative phosphorylation
Settings	at +1	at +2	at +3	at +4	at -1	at -2	at -3	at -4	at -5
A fixed	0.733	0.998	0.83	0.983	0.788	1.13	0.848	1.19	1.26
D fixed	0.55	1.02	0.913	1.22	0.704	0.232	0.153	0.433	0.319
E fixed	0.422	0.622	0.731	0.928	0.452	0.404	0.266	0.885	0.286
F fixed	0.883	0.718	0.749	0.907	0.592	0.592	0.345	0.718	0.788
G fixed	0.986	1.31	1.65	1.43	0.613	0.516	0.679	1.51	0.762
H fixed	0.977	1.06	1	1.15	1.03	0.838	0.658	0.963	0.517
I fixed	0.932	0.434	0.532	0.602	0.402	0.417	0.222	0.593	1.1
K fixed	1.22	1.07	1.11	1.14	2.6	2.73	2.59	1.86	0.788
L fixed	1.1	0.627	0.772	0.675	1.04	0.785	0.28	0.698	2.71
M fixed	1.12	0.71	0.656	0.732	0.886	1.62	0.424	1.13	0.752
N fixed	2.43	2.02	1.44	1.19	1.73	1.06	0.682	0.778	0.634
P fixed	0.399	1.89	2.6	1.42	1.49	0.415	0.992	0.512	1.35
Q fixed	1.42	1.3	1.09	1.28	0.993	2.09	0.981	1.4	1.02
R fixed	1.14	1.01	0.794	0.701	1.71	2.34	6.73	2.16	1.8
V fixed	0.902	0.49	0.592	0.756	0.571	0.73	0.265	0.714	1.62
W fixed	0.759	0.916	0.736	1.01	0.545	0.474	0.438	0.663	0.515
Y fixed	1.02	0.804	0.796	0.889	0.857	0.625	0.443	0.79	0.78
pThr fixed	0.67	0.623	0.888	0.916	0.194	0.233	0.213	0.628	0.39
pTyr fixed	0.699	0.574	0.946	0.864	0.781	0.31	0.215	0.523	0.775

MYLK, construct: aa1425-1771, human (from UniProt Q15746)
relative phosphorylation
Settings	at +1	at +2	at +3	at +4	at -1	at -2	at -3	at -4	at -5
A fixed	0.785	0.75	0.611	0.755	0.803	0.95	0.781	0.743	0.704
D fixed	0.578	0.935	0.68	0.835	0.963	0.38	0.392	0.516	0.472
E fixed	0.631	0.874	0.625	0.747	0.696	0.378	0.403	0.586	0.483
F fixed	0.917	1.27	1.37	1.15	0.87	0.584	0.653	1.45	1.21
G fixed	0.781	0.599	0.713	0.906	0.933	0.631	0.586	0.819	0.737
H fixed	0.706	0.914	0.744	1.28	1.06	1.01	0.876	0.94	0.916
I fixed	1.49	0.99	2.08	0.946	0.789	0.499	0.7	1.06	1.06
K fixed	1.36	1.19	1.03	1.18	1.27	1.93	1.63	1.41	1.21
L fixed	1.01	1.09	1.65	0.952	1.13	0.505	0.619	0.898	1.08
M fixed	1.51	1.26	1.21	0.946	1.17	0.607	0.66	1.05	1.04
N fixed	0.873	0.86	0.771	1.03	1.55	0.834	0.591	0.723	0.677
P fixed	0.615	0.675	0.637	1.01	0.896	0.465	0.556	0.651	0.722
Q fixed	1.32	1.02	0.718	0.987	1.08	1.07	0.777	0.895	0.794
R fixed	1.59	1.56	1.06	1.22	1.49	5.45	5.91	1.86	1.89
V fixed	1.34	0.93	1.14	0.814	0.791	0.521	0.566	1	0.882
W fixed	0.676	0.749	0.907	1.27	0.636	0.594	0.611	1.03	0.875
Y fixed	0.819	1.33	1.05	0.96	0.874	0.587	0.69	1.35	2.24
pThr fixed	1.48	1.39	0.785	1.03	0.744	0.528	0.543	0.678	0.667
pTyr fixed	0.795	1.19	0.925	0.965	1.07	0.51	0.784	0.669	0.772

CDKL5, construct: aa1-352, mouse (from UniProt Q3UTQ8)
relative phosphorylation
Settings	at +1	at +2	at +3	at +4	at -1	at -2	at -3	at -4	at -5
A fixed	4.03	0.798	1.01	0.928	1.15	0.826	0.761	1.03	1.12
D fixed	0.548	0.548	0.634	0.701	0.779	0.559	0.412	0.625	0.556
E fixed	0.528	0.56	0.567	0.593	0.581	0.543	0.427	0.652	0.543
F fixed	0.588	0.903	1.03	1.02	0.782	0.665	0.49	0.866	1.07
G fixed	1.51	0.936	1.03	1.07	1.22	1.06	0.65	1.04	1.24
H fixed	0.679	1.32	0.979	1.19	0.916	0.7	0.61	0.928	1.17
I fixed	0.584	0.853	0.914	0.915	0.812	0.681	0.559	0.9	0.958
K fixed	0.861	1.77	1.42	1.25	1.49	0.976	0.826	1.46	1.24
L fixed	0.564	0.851	0.896	0.925	1.04	0.817	0.516	0.938	0.974
M fixed	0.6	0.832	0.876	0.94	1.08	0.718	0.531	0.997	0.972
N fixed	0.592	0.924	0.895	1.01	0.737	0.575	0.6	0.861	0.8
P fixed	2.33	0.697	1.07	1.09	1.11	5.09	0.758	1.1	0.909
Q fixed	0.704	0.903	0.926	0.909	1.1	0.693	0.658	1.03	0.854
R fixed	1.06	2.48	1.71	1.51	1.49	1.05	7.65	1.9	1.65
V fixed	0.624	0.757	1.01	0.798	0.885	0.715	0.538	0.977	0.88
W fixed	0.631	0.828	0.852	1.17	1.04	0.691	0.515	0.847	1.07
Y fixed	0.563	1.04	1.19	0.987	0.794	0.645	0.499	0.844	0.994
pThr fixed	0.581	0.54	0.682	0.65	0.567	0.588	0.456	0.785	0.702
pTyr fixed	0.522	0.61	0.636	0.626	0.53	0.534	0.458	0.652	0.594
